Where a chain is given by its changes, count along the chain named. Numbers in names are those of the source. A value given as a limit tells only on which side of the number the result lay.

Test [1] deals with T1, peptide consisting of the first 20 amino acids of htt, MATLEKLMKAFESLKSFQQQ-biotin (C-terminal biotin).
T1 construct: Synthesized to contain three glutamines; also called huntingtin peptide; huntingtin peptide antigen
T1 peptide: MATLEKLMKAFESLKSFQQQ
Kind of test: titration of yeast surface displayed intrabody with biotinylated peptide, flow cytometry. The method, then:
(§1) Both intrabodies are equally capable of partially blocking aggregation when overexpressed at high levels. *** p<0.001. FIG. 24D is a schematic homology model that includes mutations obtained during engineering; model contains residues present before mutagenesis. Mutations observed after mutagenesis and sorting were F371, Y51D, K67R, and A75T.
(§2) Yeast surface display. […] Yeast surface display labeling experiments to measure expression and binding were conducted as previously described (Boder, E. T. et al., Methods Enzymol 328: 430-444, 2000). A peptide consisting of the first 20 amino acids of htt was used as the antigen ([…]-biotin (SEQ ID NO:9), synthesized by the MIT biopolymers lab). The antigen was synthesized to contain three glutamines because the beginning of the polyglutamine region would be an ideal target for interfering with the misfolding of htt exon I. Affinity maturation of VL,C22V,C89A relied upon protocols previously described (Colby, D. W. et al., Methods Enzymol 388: 348-358, 2004). Briefly, the VL,C22V,C89A gene was used as the template for the creation of a library of point mutants through error-prone PCR using nucleotide analogues. […]
On the technique in general: A flow cytometer gives signals particle by particle.

The target in test [2] is T1, peptide consisting of the first 20 …. Description: yeast surface display, flow cytometry with huntingtin peptide (method not restated in the sentence). The method, then: as §1, §2
Test [3] has the same target. Description: yeast surface display titration. As to the method:
as §1, §2

Test [4] has the same target. Kind of test: yeast surface display, flow cytometry with huntingtin peptide. As to the method: as §1, §2
Test [5] addresses httex1Q97-GFP, P42858. Description: cell-based or functional assay.
Test [6] deals with T1, peptide consisting of the first 20 …. Description: antigen binding curves of yeast surface displayed VL mutants, flow cytometry; figure legend's estimate from FIG. 24B. As to the method:
as §1, §2

Test [7] shares this target. Kind of test: titration of yeast surface displayed intrabody with biotinylated peptide, flow cytometry; Example 4 text's estimate from FIG. 24B. From the text:
A peptide consisting of the first 20 amino acids of htt was used as the antigen ([…]-biotin (SEQ ID NO:9), synthesized by the MIT biopolymers lab). The antigen was synthesized to contain three glutamines because the beginning of the polyglutamine region would be an ideal target for interfering with the misfolding of htt exon I. Affinity maturation of VL,C22V,C89A relied upon protocols previously described (Colby, D. W. et al., Methods Enzymol 388: 348-358, 2004). Briefly, the VL,C22V,C89A gene was used as the template for the creation of a library of point mutants through error-prone PCR using nucleotide analogues. The resulting PCR products were amplified and transformed into yeast along with digested pCTCON (a yeast surface display vector) to create a library through homologous recombination (Raymond, C. K. et al., Biotechniques 26: 134-138, 140-141, 1999). […] These mutants were then used as the template in the next round of library generation. The entire process, from library generation to isolation of improved mutants, was repeated three times to yield VL12.3. FACS sorting was performed using a Cytomation Moflo FACS machine by the staff of the MIT Flow cytometry core facility. All constructs and clones were sequenced at the MIT biopolymers lab.
Intrabody lacking disulflde bond engineered for high affinity by directed evolution. […]

For test [8] the target is unchanged. Kind of test: yeast surface display, flow cytometry. The method, then: as §1, §2

B1: VL (anti-huntingtin single-domain antibody, variable light chain only), yeast-surface displayed (other)
VL: QPVLTQSPSVSAAPRQRVTISCSGSNSNIGSNTVNWFQQLPGRAPELLMYYDDLLAPGVSDRFSGSKSGTSASLAISGLQSEDEADYYCATWDDSLNGWVFGGGTKVTVLS
notes: Single human VL domain with its disulfide bond; also called SDAb; SDIb
What is called Kd is the constant that tells how readily two partners part at equilibrium. On to B1, for which the Kd in test [1] was approximately 30 nM; in test [2] it was 30 to 50 nM.

B2: VL,C22V,C89A (disulfide-free VL), yeast-surface displayed (other)
VL: B1 VL with C22V, C89A
notes: also called disulfide-free antibody; disulfide knock-out
Turning to B2, the “fold difference in affinity against VL” value in test [3] was approximately 1000 fold. For the same molecule, the “fold decrease in affinity against the SDAb with its disulfide bond” value in test [4] is approximately 100 fold. For the same molecule, in test [1], the Kd is more than 10000 nM.

B3: VL12.3 (other)
VL: MGSQPVLTQSPSVSAAPRQRVTISVSGSNSNIGSNTVNWIQQLPGRAPELLMYDDDLLAPGVSDRFSGSRSGTSASLTISGLQSEDEADYYAATWDDSLNGWVFGGGTKVTVLSGHHHHHH
notes: It carries N-terminal MGS and C-terminal GHHHHHH, which is the his6 intrabody form; also called engineered intrabody VL12.3; Ad-VL12.3 (adenovirus carrying the gene)
With B3, the formation of aggregates in ST14A cells, 1:1 intrabody:htt plasmid ratio in test [5] amounted to 80 % reduction. In addition, the formation of aggregates in ST14A cells, higher intrabody:htt plasmid ratios in test [5] was more than 90 % reduction. Also, the Kd in test [6] is approximately 3 nM; in test [7], approximately 5 nM.

B4: engineered (affinity matured) disulfide-free SDIb of Examples 1 and 3 (other)
VL: SRPVLTQSPSVSAAPRQRVTISVSGSNSNIGSNTVNWIQQLPGRAPELLMYDDDLLAPGVSDRFSGSRSGTSASLTISGLQSEDEADYYAATWDDSLNDWVFGGGTKVTVLS
notes: expressed in yeast cytoplasm for the aggregation assay (construct not described); also called engineered SDIb
On to B4, for which the Kd in test [8] is approximately 10 nM.

(Values after patent publication US20050226863A1 (MIT, published 2005).)
